Experimental data: US20150087584A1 (COUNCIL OF SCIENTIFIC AND INDUSTRIAL RESEARCH, published 2015)

Molecular target: bovine trypsin (bovine, UniProt P00760 24-246)
Test: cell-based or functional assay

Sequence of bovine trypsin (P00760 24-246): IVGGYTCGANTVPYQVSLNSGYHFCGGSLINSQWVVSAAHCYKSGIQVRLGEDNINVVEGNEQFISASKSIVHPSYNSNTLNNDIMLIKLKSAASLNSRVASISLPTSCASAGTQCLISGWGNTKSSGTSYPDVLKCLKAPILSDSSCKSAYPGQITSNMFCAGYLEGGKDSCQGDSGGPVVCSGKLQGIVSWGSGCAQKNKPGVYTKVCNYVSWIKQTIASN

| Binder | IC50 of inhibition of bovine trypsin activity (BApNA substrate) [µM] |
| --- | --- |
| NRLCTNCCAGRKGCNYYSADGTFICEGESDPNNPKACPRNCDPNIAYSLC (other) [inhibitory repeat domain IRD-12 of Capsicum annuum Pin-II proteinase inhibitors (CanPIs)] | ~65 |
| QPICTNSSAGLKGCNYYNADGTFICEGESDPNHPKACPKNCDPNIAYSLC (other) [inhibitory repeat domain IRD-9 of Capsicum annuum Pin-II proteinase inhibitors (CanPIs)] | ~2.2 |
